Test results from patent US20210206856A1 (PANDION OPERATIONS, published 2021).
Residue numbers refer to the chain shown, from its start.

T1: human MAdCAM expressed on cells (human, UniProt Q13477 19-382)
T1 construct: whole, on cells; also called MADCAM1
T1 sequence (looked up): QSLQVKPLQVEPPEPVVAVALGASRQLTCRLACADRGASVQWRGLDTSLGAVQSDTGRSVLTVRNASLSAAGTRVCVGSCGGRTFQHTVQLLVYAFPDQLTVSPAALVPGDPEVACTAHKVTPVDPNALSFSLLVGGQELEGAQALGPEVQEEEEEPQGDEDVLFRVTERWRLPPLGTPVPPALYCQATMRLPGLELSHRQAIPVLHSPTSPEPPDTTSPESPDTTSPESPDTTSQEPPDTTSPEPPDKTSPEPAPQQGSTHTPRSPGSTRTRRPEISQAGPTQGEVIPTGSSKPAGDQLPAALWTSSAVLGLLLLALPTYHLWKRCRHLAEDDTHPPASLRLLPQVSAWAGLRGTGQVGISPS

T2: mouse MAdCAM expressed on cells (mouse, UniProt Q61826 22-405)
T2 construct: whole, on cells
T2 sequence (looked up): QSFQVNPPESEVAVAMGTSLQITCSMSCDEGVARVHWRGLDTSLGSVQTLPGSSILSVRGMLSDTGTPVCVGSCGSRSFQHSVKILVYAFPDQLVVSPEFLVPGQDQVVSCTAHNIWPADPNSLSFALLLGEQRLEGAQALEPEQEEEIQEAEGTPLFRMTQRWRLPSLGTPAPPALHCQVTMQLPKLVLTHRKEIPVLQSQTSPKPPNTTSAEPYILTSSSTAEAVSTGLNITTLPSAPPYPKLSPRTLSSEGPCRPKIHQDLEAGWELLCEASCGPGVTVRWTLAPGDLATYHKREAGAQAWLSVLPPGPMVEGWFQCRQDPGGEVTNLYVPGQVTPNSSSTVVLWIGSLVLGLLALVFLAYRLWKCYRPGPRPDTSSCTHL

B1: MAdCAM Antibody Table 2 Clone 18 (antibody, human IgG1, V domains shown)
VH: QVQLVQSGAEVKKPGSSVKVSCKASGYTFTNYYMHWVRQAPGQGLEWMGGIIPIVDRVKYAQKFQGRVTITADESTSTAYMELSSLRSEDTAVYYCAKGRYTVNYYYGMDVWGQGTTVTVSS
VL: DIQMTQSPSSLSASVGDRVTITCQANQDISNYLNWYQQKPGKAPKLLIYRASKLEAGVPSRFSGSGSGTDFTLTISSLQPEDFATYYCQQSSEIPYSFGQGTKLEIK
B2: MAdCAM Antibody Table 2 Clone 1 (antibody, human IgG1, V domains shown)
VH: EVQLLESGGGLVQPGGSLRLSCAASGFTFSSYGMHWVRQAPGKGLEWVAVISDDGSDKYYADSVKGRFTISRDNSKNTLYLQMNSLRAEDTAVYYCTTSKYYYYYGMDVWGQGTTVTVSS
VL: DIQMTQSPSSLSASVGDRVTITCQASQDISKSLNWYQQKPGKAPKLLIYAASSLQSGVPSRFSGSGSGTDFTLTISSLQPEDFATYYCQQGYSTPLTFGGGTKVEIK
B3: MAdCAM Antibody Table 2 Clone 25 (antibody, human IgG1, V domains shown)
VH: EVQLLESGGGLVQPGGSLRLSCAASGFTFSNAWMSWVRQAPGKGLEWVSTIVGNGGATYYADSVKGRFTISRDNSKNTLYLQMNSLRAEDTAVYYCARDNPLRWQGMDVWGQGTLVTVSS
VL: B2 VL with Q24R, K31N, S32Y, G91S, T94I, L96P, G100P, E105D
B4: MAdCAM Antibody Table 2 Clone 8 (antibody, human IgG1, V domains shown)
VH: QVQLVQSGAEVKKPGASVKVSCKASGYTFTGYHIHWVRQAPGQGLEWMGIINPSGGSTIYAQKFQGRVTMTRDTSTSTVYMELSSLRSEDTAVYYCAKDWSSWYLGPFDYWGQGTLVTVSS
VL: B2 VL with Q24R, D28N, K31S, G91S, S93T, L96Y, G100Q
B5: MAdCAM Antibody Table 2 Clone 12 (antibody, human IgG1, V domains shown)
VH: QVQLVQSGAEVKKPGASVKVSCKASGYTLTTWYMYWVRQAPGQGLEWMGWINPNRGATNYAQKFQGRVTMTRDTSTSTVYMELSSLRSEDTAVYYCAKGDLWGAMDVWGQGTLVTVSS
VL: B2 VL with Q24R, Q27D, D28N, S30G, K31S, S32W, N34A, L96P, G100Q
B6: MAdCAM Antibody Table 2 Clone 11 (antibody, human IgG1, V domains shown)
VH: EVQLLESGGGLVQPGGSLRLSCAASGFTFSDYYMNWVRQAPGKGLEWVSVIGESGGSTYYADSVKGRFTISRDNSKNTLYLQMNSLRAEDTAVYYCAADPVSRWPKHGGGDYWGQGTLVTVSS
VL: B2 VL with Q24R, D28G, K31S, N34A, S53T, G91S, L96W, G100Q
B7: MAdCAM Antibody Table 2 Clone 16 (antibody, human IgG1, V domains shown)
VH: EVQLLESGGGLVQPGGSLRLSCAASGFTFDDYAMHWVRQAPGKGLEWVSYIDASGTTIYYADSVKGRFTISRDNSKNTLYLQMNSLRAEDTAVYYCAKDQAAAGYWYFDLWGRGTLVTVSS
VL: B1 VL with N26S, R50K, K53T, A56S, S92Y, E93S, I94T, Y96I, S97T, K103R
B8: MAdCAM Antibody Table 2 Clone 33 (antibody, human IgG1, V domains shown)
VH: B5 VH with L113T
VL: B2 VL with Q24R, Q27D, D28N, S30G, K31S, S32W, N34A, L96P, G100Q
B9: MAdCAM Antibody Table 2 Clone 15 (antibody, human IgG1, V domains shown)
VH: QVQLVQSGAEVKKPGASVKVSCKASGYTFTGYYMHWVRQAPGQGLEWMGWIGPNSGDTNYAQKFQGRVTMTRDTSTSTVYMELSSLRSEDTAVYYCARDLDHNWYFDLWGRGTLVTVSS
VL: DIVMTQSPLSLPVTPGEPASISCRSSQSLLHSNGYNYLDWYLQKPGQSPQLLIYSSSNRAPGVPDRFSGSGSGTDFTLKISRVEAEDVGVYYCMQALHIPLTFGGGTKVEIK
B10: MAdCAM Antibody Table 2 Clone 10 (antibody, human IgG1, V domains shown)
VH: EVQLLESGGGLVQPGGSLRLSCAASGFMFGDYAMHWVRQAPGKGLEWVSAISGSGGSTYYADSVKGRFTISRDNSKNTLYLQMNSLRAEDTAVYYCAKDLVVAGIWYFDLWGRGTLVTVSS
VL: DIQMTQSPSSLSASVGDRVTITCRASQGISNNLNWYQQKPGKAPKLLIYDASSLESGVPSRFSGSGSGTDFTLTISSLQPEDFATYYCQQTHSFPSTFGQGTKLEIK
B11: MAdCAM Antibody Table 2 Clone 7 (antibody, human IgG1, V domains shown)
VH: EVQLLESGGGLVQPGGSLRLSCAASGFTFSDYQMSWVRQAPGKGLEWVAIISHADGGFKDYADSVKGRFTISRDNSKNTLYLQMNSLRAEDTAVYYCAKPYSSGWSAVYYFDYWGQGTLVTVSS
VL: DIQMTQSPSSLSASVGDRVTITCRASRGITNDLGWYQQKPGKAPKLLIYAASTLQSGVPSRFSGSGSGTDFTLTISSLQPEDFATYYCQQAYSFPWTFGQGTKVEIK
B12: MAdCAM Antibody Table 2 Clone 13 (antibody, human IgG1, V domains shown)
VH: QVQLVQSGAEVKKPGASVKVSCKASGYTFTTYYMHWVRQAPGQGLEWMGGFDPEDGETIYAQKFQGRVTMTRDTSTSTVYMELSSLRSEDTAVYYCARHAVAGAVGAGYYYYGMDVWGQGTMVTVSS
VL: B11 VL with R27E, G28S, T30S, D32W, G34A, A91S, F94V, W96F, Q100P, E105D
B13: MAdCAM Antibody Table 2 Clone 19 (antibody, human IgG1, V domains shown)
VH: EVQLLESGGGLVQPGGSLRLSCAASGFTFEDYAMHWVRQAPGKGLEWVSYLNSDGGSTSYADSVKGRFTISRDNSKNTLYLQMNSLRAEDTAVYYCAKDYCTNGVCAFDYWGQGTLVTVSS
VL: DIQMTQSPSSLSASVGDRVTITCRASQSISTYLNWYQQKPGKAPKLLIYDASNLETGVPSRFSGSGSGTDFTLTISSLQPEDFATYYCQQSYTIPITFGQGTRLEIK
B14: MAdCAM Antibody Table 2 Clone 30 (antibody, human IgG1, V domains shown)
VH: EVQLLESGGGLVQPGGSLRLSCAASGFTFSSYAMHWVRQAPGKGLEWVSGISGSGGSAYYADSVKGRFTISRDNSKNTLYLQMNSLRAEDTAVYYCATSQAPVDYYYYGMDVWGQGTTVTVSS
VL: B13 VL with T31S, Y32W, N34A, D50A, E55Q, T56R, T93S, R103K, L104V
B15: MAdCAM Antibody Table 2 Clone 34 (antibody, human IgG1, V domains shown)
VH: QVQLVQSGAEVKKPGASVKVSCKASGYTFTGYYIHWVRQAPGQGLEWMGWMNPNSGNTGYAQKFQGRVTMTRDTSTSTVYMELSSLRSEDTAVYYCARDPGFLGYCSGGSCYDGWFDPWGQGTLVTVSS
VL: B13 VL with T31S, N34H, D50A, N53S, E55Q, T56S, I94A, I96Y, R103K
B16: MAdCAM Antibody Table 2 Clone 21 (antibody, human IgG1, V domains shown)
VH: EVQLVESGGGLVKPGGSLRLSCAASGFTFSSYWMSWVRQAPGKGLEWVSYISGDSGYTNYAAPVKGRFTISRDDSKNTLYLQMNSLKTEDTAVYYCARANSSGWYDWYFDLWGRGTLVTVSS
VL: not shown
B17: MAdCAM Antibody Table 2 Clone 26 (antibody, V domains shown)
VH: EVQLLESGGGLVQPGGSLRLSCAASGFTFSSYAMSWVRQAPGKGLEWVSYISSSSTYTNYADSVKGRFTISRDNSKNTLYLQMNSLRAEDTAVYYCARANSSSWYDWYFDLWGQGTLVTVSS
VL: not shown
B18: MAdCAM Antibody Table 2 Clone 9 (antibody, human IgG1, V domains shown)
VH: QVQLVQSGAEVKKPGASVKVSCKASGYTFTSYYMHWVRQAPGQGLEWMGIINHSGGSTSYAQKFQGRVTMTRDTSTSTVYMELSSLRSEDTAVYYCARPYSGWYFAFDIWGQGTLVTVSS
VL: not shown
B19: MAdCAM Antibody Table 2 Clone 32 (antibody, human IgG1, V domains shown)
VH: B5 VH
VL: B2 VL with Q24R, Q27D, D28N, S30G, K31S, S32W, N34A, L96P, G100Q
B20: MAdCAM Antibody Table 2 Clone 35 (antibody, human IgG1, V domains shown)
VH: B15 VH with C106S, C111S
VL: B13 VL with T31S, N34H, D50A, N53S, E55Q, T56S, I94A, I96Y, R103K
B21: MAdCAM Antibody Table 2 Clone 27 (antibody, V domains shown)
VH: B17 VH with A33Q
VL: not shown

Each binder was assayed against T1, human MAdCAM expressed on cells (assay: cell binding).

Binder | binding result
B1 | binds
B2 | binds
B3 | binds
B4 | binds
B5 | binds
B6 | binds
B7 | binds
B8 | binds
B9 | binds
B10 | binds
B11 | binds
B12 | binds
B13 | binds
B14 | binds
B15 | binds
B16 | binds
B17 | binds

Each binder was assayed against T2, mouse MAdCAM expressed on cells (assay: cell binding).

Binder | binding result
B18 | no binding
B1 | no binding
B2 | binds
B3 | no binding
B4 | binds
B5 | no binding
B6 | binds
B7 | no binding
B19 | no binding
B8 | no binding
B9 | no binding
B10 | binds
B11 | binds
B12 | no binding
B13 | no binding
B14 | binds
B15 | no binding
B20 | no binding
B16 | no binding
B17 | no binding
B21 | no binding
